Drawing on US20100099619A1, this text covers Y4 RBA for three substances.

The target of this assay is neuropeptide Y4 receptor. Put plainly: competition vs [125I]-hPP, Y4-transfected CHO-K1 membranes.
Chain of neuropeptide Y4 receptor (P50391 whole entry): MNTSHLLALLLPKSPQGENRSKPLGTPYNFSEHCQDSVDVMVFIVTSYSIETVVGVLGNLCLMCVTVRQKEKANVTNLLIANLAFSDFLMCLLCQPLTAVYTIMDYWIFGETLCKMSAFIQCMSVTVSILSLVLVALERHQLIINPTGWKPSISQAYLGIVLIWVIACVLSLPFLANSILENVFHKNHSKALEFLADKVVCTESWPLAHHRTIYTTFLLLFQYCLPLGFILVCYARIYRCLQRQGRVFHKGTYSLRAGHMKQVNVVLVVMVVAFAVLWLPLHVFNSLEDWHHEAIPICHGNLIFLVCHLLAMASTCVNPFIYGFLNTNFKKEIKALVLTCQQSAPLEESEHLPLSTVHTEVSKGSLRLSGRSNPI
Consider “NPY (human neuropeptide Y) (peptide; modification not given)”, for which the Y4 RBA was found to be 39 nM.
Under “PYY (human peptide YY) (peptide; modification not given)” stands 4.5 nM.
Under “PYY(3-36) (peptide; modification not given)” stands 54 nM.
